The source of these data is PMC10056440 (2023).

For assay [1], the target named is mKate2-Kv1.3 M1-D52 truncated (Homo sapiens, UniProt P22001). In words: competition with AgTx2-GFP, confocal, Neuro 2A cells.
For assay [2], the target named is KcsA-Kv1.3 pore blocker binding site (Homo sapiens, UniProt P22001). The experiment in a line: competition with AgTx2-GFP, confocal, spheroplasts.
For assay [3], the target named is KcsA-Kv1.6 pore blocker binding site (Homo sapiens, UniProt P17658). The experiment in a line: competition with AgTx2-GFP, confocal, spheroplasts.
Assay [4] concerns the target KcsA-Kv1.1 pore blocker binding site (Homo sapiens, UniProt Q09470). In words: competition with AgTx2-GFP, confocal, spheroplasts.

No end group written: not given here.

Sequence of KcsA-Kv1.3 pore blocker binding site (P22001 420-453): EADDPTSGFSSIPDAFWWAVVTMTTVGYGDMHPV
Sequence of KcsA-Kv1.6 pore blocker binding site (P17658 398-431): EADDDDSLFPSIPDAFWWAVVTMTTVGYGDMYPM
Sequence of KcsA-Kv1.1 pore blocker binding site (Q09470 348-381): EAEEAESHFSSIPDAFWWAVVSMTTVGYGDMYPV
Sequence of mKate2-Kv1.3 M1-D52 truncated (P22001 53-575): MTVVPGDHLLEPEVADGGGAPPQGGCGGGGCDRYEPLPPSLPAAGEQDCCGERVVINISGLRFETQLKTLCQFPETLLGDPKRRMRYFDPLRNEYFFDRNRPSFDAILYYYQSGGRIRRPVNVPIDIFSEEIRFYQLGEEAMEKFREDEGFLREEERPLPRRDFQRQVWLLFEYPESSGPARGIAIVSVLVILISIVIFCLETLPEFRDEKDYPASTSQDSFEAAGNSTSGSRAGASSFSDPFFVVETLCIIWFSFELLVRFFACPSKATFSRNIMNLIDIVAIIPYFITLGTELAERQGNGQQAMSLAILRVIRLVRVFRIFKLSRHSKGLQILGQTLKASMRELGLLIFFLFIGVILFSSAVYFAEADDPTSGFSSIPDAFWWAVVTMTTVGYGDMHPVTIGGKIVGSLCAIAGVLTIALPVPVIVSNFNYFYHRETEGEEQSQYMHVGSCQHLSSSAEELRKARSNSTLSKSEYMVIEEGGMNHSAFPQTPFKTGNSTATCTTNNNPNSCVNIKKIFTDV

GVPINVSCTGSPQCIKPCKDAGMRFGKCMNRKCHCTPK (ends and bridges not checked; cysteine pairing not given here) [AgTx2, listing 1 of 4 here]: the Ki in assay [1] is 700 pM.
The molecule GVPINVSCTGSPQCIKPCKDAGMRFGKCMNRKCHCTPK (ends and bridges not checked; cysteine pairing not given here) [AgTx2, listing 2 of 4 here] came in with a Ki in assay [2] of 39 pM.
With GVEINVKCSGSPQCLKPCKDAGMRFGKCMNRKCHCTPK (ends and bridges not checked; cysteine pairing not given here) [KTx1, listing 1 of 3 here], in assay [2], the affinity, expressed as Ki, was 32 pM.
Turning to GVPINVSCTGSPQCIKPCKDAGMRFGKCMNRKCHCTPK (ends and bridges not checked; cysteine pairing not given here) [AgTx2, listing 3 of 4 here], the Ki in assay [3] was 27 pM.
In assay [3], GVEINVKCSGSPQCLKPCKDAGMRFGKCMNRKCHCTPK (ends and bridges not checked; cysteine pairing not given here) [KTx1, listing 2 of 3 here] showed a Ki of 16 pM.
In turn, GVEINVKCSGSPQCLKPCKDAGMRFGKCMNRKCHCTPK (ends and bridges not checked; cysteine pairing not given here) [KTx1, listing 3 of 3 here] returned a Ki in assay [4] of 3800 pM.
Same read-out and setting: for GVPINVSCTGSPQCIKPCKDAGMRFGKCMNRKCHCTPK (ends and bridges not checked; cysteine pairing not given here) [AgTx2, listing 4 of 4 here] the value was 3700 pM.

What is called Ki is a dissociation constant, usually derived from enzyme kinetics or from competition with a known ligand. A high value points to a looser hold on the target.
